From US20150045540A1 (published 2015)

T1: Placenta Growth Factor (PlGF), human (human, UniProt P49763 21-149)
T1 chain: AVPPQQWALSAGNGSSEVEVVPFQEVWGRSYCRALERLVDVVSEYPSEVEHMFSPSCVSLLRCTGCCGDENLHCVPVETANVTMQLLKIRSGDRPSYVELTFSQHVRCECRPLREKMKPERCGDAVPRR


How the values were obtained:
[1] = target: T1, Placenta Growth Factor (PlGF), human; experiment: ELISA
[2] = target: Hepatocyte Growth Factor (HGF), human (human, UniProt P14210 32-728); experiment: ELISA
Sequence of Hepatocyte Growth Factor (HGF), human (P14210 32-728): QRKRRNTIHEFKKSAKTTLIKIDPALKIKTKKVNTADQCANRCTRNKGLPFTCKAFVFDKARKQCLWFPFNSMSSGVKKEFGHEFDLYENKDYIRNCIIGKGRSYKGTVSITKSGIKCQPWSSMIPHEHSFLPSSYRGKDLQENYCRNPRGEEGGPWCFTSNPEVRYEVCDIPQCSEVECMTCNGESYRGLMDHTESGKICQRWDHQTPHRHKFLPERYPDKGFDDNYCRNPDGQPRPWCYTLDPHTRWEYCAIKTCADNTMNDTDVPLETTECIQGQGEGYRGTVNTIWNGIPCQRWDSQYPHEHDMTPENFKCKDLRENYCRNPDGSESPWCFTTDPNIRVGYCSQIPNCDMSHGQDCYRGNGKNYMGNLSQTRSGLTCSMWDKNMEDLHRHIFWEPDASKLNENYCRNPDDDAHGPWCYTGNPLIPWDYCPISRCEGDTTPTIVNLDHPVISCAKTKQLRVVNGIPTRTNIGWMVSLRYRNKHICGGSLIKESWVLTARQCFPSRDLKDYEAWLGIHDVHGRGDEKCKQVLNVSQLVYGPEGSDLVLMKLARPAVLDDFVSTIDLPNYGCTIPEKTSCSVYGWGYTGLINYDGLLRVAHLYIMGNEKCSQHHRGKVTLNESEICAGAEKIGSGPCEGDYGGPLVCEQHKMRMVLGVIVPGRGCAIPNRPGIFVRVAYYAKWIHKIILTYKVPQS

Binder | EC50 [1] | EC50 [2]
HC 3/SLC 4 (antibody) chain 1: GQGTLVTVSSASTQPVLHQPPAMSSALGTTIRLTCTLRNDHDIGVYSVYWYQQRPGHPPRFLLRYFSQSDKSQGPQVPPRFSGSKDVARNRGYLSISELQPEDEAMYYCAMGARSRCWPRGFQSKHNSVTHVFGSGTQLTVLSQPKATPSVTLFPPSSEELQANKATLVCLMNDFYPGILTVTWKADGTPITQGVEMTTPSKQSNNKYAASSYLSLTPEQWRSRRSYSCQVMHEGSTVEKTVAPAECS chain 2: MSWAPVLLMLFVYCTGCGPQPVLHQPPAMSSALGTTIRLTCTLRNDHDIGVYSVYWYQQRPGHPPRFLLRYFSQSDKSQGPQVPPRFSGSKDVARNRGYLSISVTHVFGSGTQLTVLSQPKQVQLVQ | 0.22 nM | 0.067 nM
HC 3/SLC 5 (antibody) chain 1: GQGTLVTVSSASTQPVLHQPPAMSSALGTTIRLTCTLRNDHDIGVYSVYWYQQRPGHPPRFLLRYFSQSDKSQGPQVPPRFSGSKDVARNRGYLSISELQPEDEAMYYCAMGARSRCWPRGFQSKHNSVTHVFGSGTQLTVLSQPKATPSVTLFPPSSEELQANKATLVCLMNDFYPGILTVTWKADGTPITQGVEMTTPSKQSNNKYAASSYLSLTPEQWRSRRSYSCQVMHEGSTVEKTVAPAECS chain 2: MSWAPVLLMLFVYCTGCGPQPVLHQPPAMSSALGTTIRLTCTLRNDHDIGVYSVYWYQQRPGHPPRFLLRYFSQSDKSQGPQVPPRFSGSKDVARNRGYLSISVTHVFGSGTQLTVLSQPKAQVQLVQ | 0.249 nM | 0.054 nM
HC 2/SLC 6 (antibody) chain 1: GQGTLVTVSSASQPVLHQPPAMSSALGTTIRLTCTLRNDHDIGVYSVYWYQQRPGHPPRFLLRYFSQSDKSQGPQVPPRFSGSKDVARNRGYLSISELQPEDEAMYYCAMGARSRCWPRGFQSKHNSVTHVFGSGTQLTVLSQPKATPSVTLFPPSSEELQANKATLVCLMNDFYPGILTVTWKADGTPITQGVEMTTPSKQSNNKYAASSYLSLTPEQWRSRRSYSCQVMHEGSTVEKTVAPAECS chain 2: MSWAPVLLMLFVYCTGCGPQPVLHQPPAMSSALGTTIRLTCTLRNDHDIGVYSVYWYQQRPGHPPRFLLRYFSQSDKSQGPQVPPRFSGSKDVARNRGYLSISVTHVFGSGTQLTVLSQPKATQVQLVQ | 0.161 nM | 0.056 nM
HC 6/SLC 4 (antibody) chain 1: GQGTLVTVSSASTKGPQPVLHQPPAMSSALGTTIRLTCTLRNDHDIGVYSVYWYQQRPGHPPRFLLRYFSQSDKSQGPQVPPRFSGSKDVARNRGYLSISELQPEDEAMYYCAMGARSRCWPRGFQSKHNSVTHVFGSGTQLTVLSQPKATPSVTLFPPSSEELQANKATLVCLMNDFYPGILTVTWKADGTPITQGVEMTTPSKQSNNKYAASSYLSLTPEQWRSRRSYSCQVMHEGSTVEKTVAPAECS chain 2: MSWAPVLLMLFVYCTGCGPQPVLHQPPAMSSALGTTIRLTCTLRNDHDIGVYSVYWYQQRPGHPPRFLLRYFSQSDKSQGPQVPPRFSGSKDVARNRGYLSISVTHVFGSGTQLTVLSQPKQVQLVQ | 0.191 nM | 0.06 nM
HC 2/SLC 4 (antibody) chain 1: GQGTLVTVSSASQPVLHQPPAMSSALGTTIRLTCTLRNDHDIGVYSVYWYQQRPGHPPRFLLRYFSQSDKSQGPQVPPRFSGSKDVARNRGYLSISELQPEDEAMYYCAMGARSRCWPRGFQSKHNSVTHVFGSGTQLTVLSQPKATPSVTLFPPSSEELQANKATLVCLMNDFYPGILTVTWKADGTPITQGVEMTTPSKQSNNKYAASSYLSLTPEQWRSRRSYSCQVMHEGSTVEKTVAPAECS chain 2: MSWAPVLLMLFVYCTGCGPQPVLHQPPAMSSALGTTIRLTCTLRNDHDIGVYSVYWYQQRPGHPPRFLLRYFSQSDKSQGPQVPPRFSGSKDVARNRGYLSISVTHVFGSGTQLTVLSQPKQVQLVQ | 0.175 nM | 0.058 nM
HC 5/SLC 2 (antibody) chain 1: GQGTLVTVSSASTKGQPVLHQPPAMSSALGTTIRLTCTLRNDHDIGVYSVYWYQQRPGHPPRFLLRYFSQSDKSQGPQVPPRFSGSKDVARNRGYLSISELQPEDEAMYYCAMGARSRCWPRGFQSKHNSVTHVFGSGTQLTVLSQPKATPSVTLFPPSSEELQANKATLVCLMNDFYPGILTVTWKADGTPITQGVEMTTPSKQSNNKYAASSYLSLTPEQWRSRRSYSCQVMHEGSTVEKTVAPAECS chain 2: MSWAPVLLMLFVYCTGCGPQPVLHQPPAMSSALGTTIRLTCTLRNDHDIGVYSVYWYQQRPGHPPRFLLRYFSQSDKSQGPQVPPRFSGSKDVARNRGYLSISVTHVFGSGTQLTVLSQQVQLVQ | 0.197 nM | 0.051 nM

More lines, in order of falling EC50 [1], values ahead:

EC50 [1] | EC50 [2] | Binder
0.157 nM | 0.056 nM | HC 3/SLC 8 (antibody) chain 1: GQGTLVTVSSASTQPVLHQPPAMSSALGTTIRLTCTLRNDHDIGVYSVYWYQQRPGHPPRFLLRYFSQSDKSQGPQVPPRFSGSKDVARNRGYLSISELQPEDEAMYYCAMGARSRCWPRGFQSKHNSVTHVFGSGTQLTVLSQPKATPSVTLFPPSSEELQANKATLVCLMNDFYPGILTVTWKADGTPITQGVEMTTPSKQSNNKYAASSYLSLTPEQWRSRRSYSCQVMHEGSTVEKTVAPAECS chain 2: MSWAPVLLMLFVYCTGCGPQPVLHQPPAMSSALGTTIRLTCTLRNDHDIGVYSVYWYQQRPGHPPRFLLRYFSQSDKSQGPQVPPRFSGSKDVARNRGYLSISVTHVFGSGTQLTVLSQPKATPSQVQLVQ
0.157 nM | 0.059 nM | HC 5/SLC 6 (antibody) chain 1: GQGTLVTVSSASTKGQPVLHQPPAMSSALGTTIRLTCTLRNDHDIGVYSVYWYQQRPGHPPRFLLRYFSQSDKSQGPQVPPRFSGSKDVARNRGYLSISELQPEDEAMYYCAMGARSRCWPRGFQSKHNSVTHVFGSGTQLTVLSQPKATPSVTLFPPSSEELQANKATLVCLMNDFYPGILTVTWKADGTPITQGVEMTTPSKQSNNKYAASSYLSLTPEQWRSRRSYSCQVMHEGSTVEKTVAPAECS chain 2: MSWAPVLLMLFVYCTGCGPQPVLHQPPAMSSALGTTIRLTCTLRNDHDIGVYSVYWYQQRPGHPPRFLLRYFSQSDKSQGPQVPPRFSGSKDVARNRGYLSISVTHVFGSGTQLTVLSQPKATQVQLVQ
0.153 nM | 0.07 nM | HC 10/SLC 4 (antibody) chain 1: GQGTLVTVSSASTKGPSVFPQPVLHQPPAMSSALGTTIRLTCTLRNDHDIGVYSVYWYQQRPGHPPRFLLRYFSQSDKSQGPQVPPRFSGSKDVARNRGYLSISELQPEDEAMYYCAMGARSRCWPRGFQSKHNSVTHVFGSGTQLTVLSQPKATPSVTLFPPSSEELQANKATLVCLMNDFYPGILTVTWKADGTPITQGVEMTTPSKQSNNKYAASSYLSLTPEQWRSRRSYSCQVMHEGSTVEKTVAPAECS chain 2: MSWAPVLLMLFVYCTGCGPQPVLHQPPAMSSALGTTIRLTCTLRNDHDIGVYSVYWYQQRPGHPPRFLLRYFSQSDKSQGPQVPPRFSGSKDVARNRGYLSISVTHVFGSGTQLTVLSQPKQVQLVQ
0.052 nM | 0.053 nM | HC 7/SLC 15 (antibody) chain 1: GQGTLVTVSSASTKGPSQPVLHQPPAMSSALGTTIRLTCTLRNDHDIGVYSVYWYQQRPGHPPRFLLRYFSQSDKSQGPQVPPRFSGSKDVARNRGYLSISELQPEDEAMYYCAMGARSRCWPRGFQSKHNSVTHVFGSGTQLTVLSQPKATPSVTLFPPSSEELQANKATLVCLMNDFYPGILTVTWKADGTPITQGVEMTTPSKQSNNKYAASSYLSLTPEQWRSRRSYSCQVMHEGSTVEKTVAPAECS chain 2: MSWAPVLLMLFVYCTGCGPQPVLHQPPAMSSALGTTIRLTCTLRNDHDIGVYSVYWYQQRPGHPPRFLLRYFSQSDKSQGPQVPPRFSGSKDVARNRGYLSISVTHVFGSGTQLTVLSQPKATPSVTGGGGSQVQLVQ
